Results from patent US20200223906A1 (Adimab, published 2020).
Substitutions are numbered along the chain they refer to.

B1: ADI-18889 (antibody, V domains shown)
VH: QVQLQQWGAGLWKPSQTLSLTCAVHGGSLSGYSWSWIRQSPGRGLEWIGEVNRRGTTNYNPSLKGRVSISWDTSKNQVSLSLRSVTAADTATYYCAGTNVGFVNTHNDYYFGMDVWGQGTTVTVSS
VL: DIVMTQSPSSLSASVGDRVTITCRASQSISNYVNWYQKKTGQVPKLLIYGASNLESGVPSRFSGGGSGTDFTLTISSLQPEDFATYYCQQSYSVPLTFGGGTKVEIK
notes: full-length IgG from yeast; also called Antibody Number 244; Ab # 244
B2: ADI-18913 (antibody, V domains shown)
VH: QVQLVQSGPEVKKPGESLTISCKGSGYDFSNNWIGWVRQMPGKGLEWMGIIYPGDSDTRYSPSFQGQVTLSVDKSISTAYLQWRSLKASDSGIYYCARQIGGLVCSSESCYFYGMDVWGQGTTVTVSS
VL: DIQLTQSPSSLSASVGGRVTITCRASQSISNYLNWYQHKPGKAPELLIYGASSLQSGVPSRFSGSGSGTDFTLTISSLQPEDFATYYCQQSDTTPFTFGQGTKVDIK
notes: full-length IgG from yeast
B3: ADI-18971 (antibody, V domains shown)
VH: EVQLVESGGGLVQRGGSLRLSCAASGFTFSGNAMSWVRQAPGKGLEWVASIGESATSAYYADSVKGRFTISRDDSKNTLYLQMNSLRPEDTAVYFCAKDRVGWFGEFDAFDFWGQGTMVTVSS
VL: SYELTQPPSVSVAPGKTATISCGGNNIGGHKVHWYQQRPGQAPVLVIYYDNVRPSGIPERFSGSNSGNTATLTISRVEAGDEADFYCQVWDSRSEHVIFGGGTKVTVL
notes: full-length IgG from yeast; also called Antibody Number 319; Ab # 319
B4: ADI-18902 (antibody, V domains shown)
VH: QVQLQESGPGLVKPSETLSLTCTVSGGSISGYYWSWIRQPPGRGLEWIGFIYYSGSTSYDSSLKSRVTISVDTSKNQFSLNLSSVTAADTAVYYCARSTWDYGDHFPFDYWGQGTLVTVSS
VL: SYELTQPPSVSVAPGKTARITCGGNNIGIKDVHWYQLRPGQAPVLVISYDSDRPSGIPERFSGSNSGNTATLTISRVEAGDEADYFCQVWDSSPDHPYVFGTGTKLTVL
notes: full-length IgG from yeast
B5: ADI-18877 (antibody, V domains shown)
VH: QVQLVQSGTEVKKPGASVKVSCKAAGYTFSNYGVSWVRQAPGQGLEWMGWISAYNGNTKFAQKVQGRLTMTTDTSTSTAYMELRNLRSDDTAVYYCARESGATAAAMFDYWGQGTLVTVSS
VL: ETTLTQSPLSLPVTLGQPASISCRSSQSLEYSDGNIYLSWFQQRPGQSPRRLIYKVSHRDSGVPDRFSGSGSGTDFTLKIARVEAEDVAVYYCMQAIHWPRTFGQGTKVDIK
notes: full-length IgG from yeast; also called Antibody Number 234; Ab # 234
B6: ADI-18898 (antibody, V domains shown)
VH: B5 VH
VL: B5 VL with T2I, T3V, D110E
notes: full-length IgG from yeast
B7: ADI-18975 (antibody, V domains shown)
VH: QVQLVQSGAEVKKPGASVKVSCKASGYTFVHYGISWVRQAPGQGLEWMGWISAYNGNTNSALKFQDRVTMTTDPSTSTAYMELRSLRSDDTAIYYCARDSGCCSGSTSDVWGKGTTVTVSS
VL: DIVMTQSPLSSPVTLGQPASISCRSSQSLVHSDGNTYLSWLHQRPGQPPRLLIYKISHRFSGVPDRFTGSGAGTDFTLKISRVEAEDVGVYYCMQATEFPPMYTFGQGTKVEIK
notes: full-length IgG from yeast; also called Antibody Number 323; Ab # 323
B8: ADI-18912 (antibody, V domains shown)
VH: EVQLVESGGGLVKPGGALRLSCAASGFSFRSYSMNWVRQAPGKGLEWVSSISSSSNYINYADSVKGRFSISRDNAKNSLYLQMNSLRAEDTAVYYCARDLLPVERGPAFDIWGQGTMVTVSS
VL: SYELTQPPSVSGAPGQRVTISCTGSSSNIGAGYDVHWFQQLPGAAPKLLIYANSNRPSGVPDRFSGSKSGTSASLAITGLQAEDEADYYCQSYDSRLGGSVFGGGTKVTVL
notes: full-length IgG from yeast
B9: ADI-18890 (antibody, V domains shown)
VH: QVQLVQSGAEVKRPGSSVKVSCKASGGTFRGYHISWLRQAPGQGLEWLGGITHLFGTVSYAPKFQGRVTITADASTGTLYMVLNSLKPEDTAIYYCARDAYEVWTGSYLPPFDYWGQGTLVTVSS
VL: ETTLTQSPGTLSLSPGERATLSCRASQTVTSNYLAWYQQKPGQAPRLLIYDALTRATGIPDRFSGSGSGTDFTLTISRLEPEDFALYYCQQYGSSFLTFGGGTKVDIK
notes: full-length IgG from yeast
B10: ADI-18891 (antibody, V domains shown)
VH: B9 VH with V5Q, Q6E, R13K, T28A, R30S, G31S, H33A, L37V
VL: B9 VL with T2I, T3V, V105L, D106E
notes: full-length IgG from yeast; also called Antibody Number 246; Ab # 246
B11: ADI-18893 (antibody, V domains shown)
VH: EVQLLESGGGLVKPGGSLRLSCVASGFTFSSYNINWVRQAPGKGLEWVSSISGGSNYIDYADSVKGRFTISRDNAKNSLYLQMNNLRAEDTAVYYCARLGYGGNPELDYWGQGTLVTVSS
VL: QSVLTQPPSVSGAPGQRVTISCTGSSSNIGAGYDVHWYQQRPGTAPKLLIYANNNRPSGVPDRFSGSKSGTSASLAITGLQAEDEADYYCQSYDLSLSSSRVFGGGTKLTVL
notes: full-length IgG from yeast; also called Antibody Number 248; Ab # 248
B12: ADI-18900 (antibody, V domains shown)
VH: EVQLLESGGALVEPGGSLRLSCAASGFSFNTYSMNWVRQGPGKGLEWVATISTSTAGSYYADSVRGRFTISRDNSKNTLYLQMNSLRVEDTAVYYCARDQEVELIDDAFDFWGRGTMVTVSS
VL: DIVMTQTHSSLSASVGDRVTITCRASQSISIWVAWYQQKPGKAPNLLIYKASSLQSGVPSRFSGSGSGTEFTLTISSLQPDDSATYYCQQYYTYYSFGQGTKLEIK
notes: full-length IgG from yeast
B13: ADI-18974 (antibody, V domains shown)
VH: QVQLVQSGPEVKKPGASVRVSCEASGYPFSNYGITWVRQAPGQGLEWMGWISAYNGNRDYLQKFQGRLTMTIDTSTRTAHMELRRLTSDDTAVYWCARDTPATAAPLLDYWGQGTLVTVSS
VL: DIVMTQSPLSLAVTLGQPASISCRSSQSLEFTDGNTYLNWFQQRPGQSPRRLIYKVSNRDSGVPDRFSGSGSGTGFTLKISRVEAEDVGVYYCMQGIFRPGTFGQGTKVEIK
notes: full-length IgG from yeast
B14: ADI-18977 (antibody, V domains shown)
VH: QVQLVQSGTEVKKPGASVKISCKTSGYTFTNNVIQWVRQAPGQRLEWMGWISAGNGYTKYSDKFQDRVTITRDTSASTAYMEVSSLTSEDTAMYYCARQVSTSGWHATSHRFAPWGQGTLVTVSS
VL: DIQMTQSPSSLSASVGDRVTITCQASQGISRYLNWYQQKPGKAPNLLIYDASNLETGVPSRFSGSGSGTHFTLTISSLQPEDIATYYCQQYDNLPLTFGGGTKVEIK
notes: full-length IgG from yeast
B15: ADI-18892 (antibody, V domains shown)
VH: QVQLVQSGAEVKEPGASVRVSCKASGYTFTSYGISWVRQAPGQGLEWMGWISAYNGNTNYAQKFQGRVTVTTDTSTSAAYMELRSLRSDDTAIYYCARDSFSLTGAGFPDYWGQGTLVTVSS
VL: EIVMTQSPLSLPVTLGQPASISCRSSQSLVYSDGNTYLNWFQQRPGQSPRRLIYKVSNRDSGVPDRFSGSGSDTDFTLKISRVEAEDVGVYYCMQATQWPRTFGQGTKVEIK
notes: full-length IgG from yeast
B16: ADI-18908 (antibody, V domains shown)
VH: QVQLVESGGGLVKPGGSLRLSCAASGFTFSSFGMHWVRQAPGQGLEWVASITGGSSYINYADSVKGRFTISRDNAKKSLSLQMKNLRAEDTAEYYCVRGVLPGGTGGGWFDSWGQGTLVTVSS
VL: QSVLTQPPSMSGAPGQRVTISCTGTSSNIGAGYDVQWYQQFPGTAPKLLISGNNNRPSGVPDRFSGSKSGASASLAITGLQAEDEADYYCQSYDYSLNWVFGGGTKLTVL
notes: full-length IgG from yeast
B17: ADI-18917 (antibody, V domains shown)
VH: B16 VH with Q1E, G104D
VL: B16 VL
notes: full-length IgG from yeast; also called Antibody Number 271; Ab # 271

Columns and labels:
[1] = molecular target: RSV F protein of subtype A (strain A2) on recombinant mKate-RSV virus (Respiratory syncytial virus subtype A …, UniProt P03420 26-574); experiment: cell-based or functional assay
[2] = molecular target: RSV F protein of subtype B (18537) on recombinant mKate-RSV virus (Respiratory syncytial virus subtype B …, UniProt P13843 26-574); experiment: cell-based or functional assay
[3] = molecular target: T1, RSV F subtype B, furin-cleaved ectodomain stabilized in the prefusion conformation (DS-Cav1) (Respiratory syncytial virus subtype B); experiment: BLI, IgG on AHQ sensor, 100 nM antigen
T1 construct: extracellular domain; Trimeric soluble antigen; also called Prefusion subtype B

[4] = molecular target: T2, RSV F subtype A, furin-cleaved ectodomain stabilized in the prefusion conformation (DS-Cav1) (Respiratory syncytial virus subtype A, UniProt P03420 26-524); experiment: BLI, IgG on AHQ sensor, 100 nM antigen
T2 construct: extracellular domain; Trimeric soluble antigen; also called Prefusion subtype A

| Binder | Neut IC50 (µg/ml) subtype A [1] | Neut IC50 (µg/ml) subtype B [2] | Kd [3] | Kd [4] |
| --- | --- | --- | --- | --- |
| B1 | 0.04 µg/mL | 0.019 µg/mL | 0.587 nM | 0.554 nM |
| B2 | < 0.01 µg/mL | < 0.01 µg/mL | 0.471 nM | 0.568 nM |
| B3 | 0.039 µg/mL | 0.114 µg/mL | 0.168 nM | 0.157 nM |
| B4 | 0.024 µg/mL | 0.15 µg/mL | 0.101 nM | 0.107 nM |
| B5 | 0.41 µg/mL | 0.13 µg/mL | 0.383 nM | 0.303 nM |
| B6 | 0.03 µg/mL | 0.097 µg/mL | 0.325 nM | 0.305 nM |
| B7 | 0.037 µg/mL | 0.174 µg/mL | 0.298 nM | 0.267 nM |
| B8 | 0.024 µg/mL | 0.061 µg/mL | 0.286 nM | 0.258 nM |
| B9 | 0.041 µg/mL | 0.041 µg/mL | 0.458 nM | 0.489 nM |
| B10 | 0.012 µg/mL | 0.026 µg/mL | 0.513 nM | 0.534 nM |
| B11 | 0.123 µg/mL | 0.182 µg/mL | 0.278 nM | 0.245 nM |
| B12 | 0.035 µg/mL | 0.059 µg/mL | 0.331 nM | 1.19 nM |
| B13 | 0.03 µg/mL | 0.105 µg/mL | 0.29 nM | 0.253 nM |
| B14 | 0.108 µg/mL | 0.117 µg/mL | 0.966 nM | 0.786 nM |
| B15 | 0.018 µg/mL | 0.117 µg/mL | 0.253 nM | 0.217 nM |
| B16 | 0.018 µg/mL | 0.095 µg/mL | 0.352 nM | 0.302 nM |
| B17 | 0.024 µg/mL | 0.091 µg/mL | 0.332 nM | 0.356 nM |
